For 167 variants, self-cleavage results are on record in the RNAGym collection of RNA variant scans (doi:10.7554/elife.90254).

B1: LINE1-full (parent)
chain: UACGUAGGUGGUUUUCCCCUGAUAGUGCUAAGGGGGCCUGGAAGUUUGGACUGGGCAGAGCUCAACACAGCGUGGCAAAGUGGCUGUGGCUAGACUGCCUCUCUGGAUUCCUCGUCACUCAGCAGGGCAUCUCUGAGAGAAAUGCC

Variants of B1 are the subject of this data set. Briefly: self-cleavage, relative activity (ratio to wild type); higher = more cleavage; in vitro, sequencing; the parent is a self-cleaving ribozyme.
For U15C U130C, the self-cleavage came to 1.19.

U15G U39A: the self-cleavage turned out to be 1.19.

Turning to C19U U45A, the self-cleavage was determined as 1.43.

As to C19U U45C, the self-cleavage worked out at 0.86.

On to C17U U143A, for which the self-cleavage came to 0.85.

On to C17U U143C, for which the self-cleavage worked out at 1.03.

Turning to C18U A94G, the self-cleavage was 0.32.

As to C16A U115C, the self-cleavage came out at 0.41.

Regarding U20A A50U, the self-cleavage is 1.06.

Regarding U20A A117C, the self-cleavage was 1.77.

Turning to U20A A117G, the self-cleavage is 1.94.

As to U20A A117U, the self-cleavage amounted to 1.49.

In the case of C18U A65G, the self-cleavage turned out to be 0.07.

As to C17A A67G, the self-cleavage came out at 0.56.

C17U A69G: the self-cleavage amounted to 0.4.

On to C19A A77G, for which the self-cleavage was 2.71.

In the case of C16A U46C, the self-cleavage was 0.91.

For the variant U20A G53U, the self-cleavage stood at 1.1.

U15C U87C: the self-cleavage stood at 0.33.

As to C17G U91C, the self-cleavage worked out at 0.38.

Consider U20A U119A, for which the self-cleavage turned out to be 1.47.

Turning to U20A U119C, the self-cleavage amounted to 1.05.

With C17U U62C, the self-cleavage was found to be 0.04.

As to C19U A67U, the self-cleavage was 0.1.

For the variant U15G A141G, the self-cleavage is 1.

As to C18U G144A, the self-cleavage came to 0.75.

For C19U G125U, the self-cleavage was found to be 1.81.

In the case of C19U U130C, the self-cleavage was found to be 1.08.

For the variant U15G A78U, the self-cleavage is 2.03.

For the variant C19G A77G, the self-cleavage turned out to be 2.07.

Take U20A A142G: the self-cleavage came out at 1.08.

Consider C17U A22U, for which the self-cleavage amounted to 1.21.

Regarding U20A A138U, the self-cleavage was determined as 1.19.

Consider C16U, for which the self-cleavage stood at 1.12.

C16A: the self-cleavage was found to be 0.96.

Regarding C18U C71A, the self-cleavage worked out at 0.09.

Consider U15G U119A, for which the self-cleavage is 1.01.

U15G U29C: the self-cleavage was determined as 1.05.

In the case of C19U C95U, the self-cleavage amounted to 0.43.

Regarding C18A G58U, the self-cleavage worked out at 0.07.

With C17U A42G, the self-cleavage came out at 1.36.

Turning to C19U U143C, the self-cleavage was determined as 0.98.

On to U15C U112C, for which the self-cleavage stood at 1.37.

Consider U15C U112A, for which the self-cleavage amounted to 1.64.

On to C19U A124U, for which the self-cleavage turned out to be 0.76.

As for C16U U108C, the self-cleavage turned out to be 1.72.

Turning to C18G U115C, the self-cleavage worked out at 1.67.

Take C18U G25A: the self-cleavage stood at 0.39.

With C16U A92U, the self-cleavage was 0.58.

Turning to C16U A92G, the self-cleavage stood at 0.2.

Regarding C19U C51U, the self-cleavage came to 1.01.

C18A U73G: the self-cleavage is 1.01.

C19U G32A: the self-cleavage was 0.87.

In the case of U20A U115C, the self-cleavage stood at 1.66.

For the variant C19U A107G, the self-cleavage is 1.41.

Consider C19U A107U, for which the self-cleavage was 1.5.

As to C18U A77U, the self-cleavage came to 1.11.

As for C18U A77G, the self-cleavage was found to be 1.91.

Take C19U A78U: the self-cleavage came out at 1.72.

Consider C19U A78C, for which the self-cleavage came to 1.71.

On to U20A U108G, for which the self-cleavage amounted to 0.53.

For the variant U15C U102A, the self-cleavage came to 0.19.

As for U15C U102G, the self-cleavage was 0.8.

In the case of C18U C56U, the self-cleavage is 0.24.

For the variant U15G U132C, the self-cleavage is 1.81.

As for U20A C38A, the self-cleavage is 1.01.

As to C17U A79U, the self-cleavage turned out to be 1.1.

Turning to C16U A77U, the self-cleavage came out at 1.4.

Regarding U20A G48U, the self-cleavage worked out at 1.42.

With U20A G48A, the self-cleavage came out at 0.77.

As to C17A A22G, the self-cleavage came out at 2.19.

As for U20A C28U, the self-cleavage worked out at 1.3.

With C16A A142G, the self-cleavage stood at 0.86.

In the case of U20C A69U, the self-cleavage is 0.07.

On to U20C A69G, for which the self-cleavage is 0.66.

For the variant U20A A43U, the self-cleavage is 1.46.

On to U20A G127A, for which the self-cleavage was found to be 1.1.

For C19U A77U, the self-cleavage stood at 1.3.

As for U15G A138G, the self-cleavage worked out at 0.53.

For the variant U20C A22U, the self-cleavage turned out to be 1.12.

Turning to U20C A22G, the self-cleavage was 1.04.

Turning to C19G A42G, the self-cleavage came out at 1.41.

On to C17U U26A, for which the self-cleavage came to 0.85.

Regarding C16U C38U, the self-cleavage stood at 1.06.

With C17U U87A, the self-cleavage was determined as 0.11.

With C17U U87C, the self-cleavage was 0.23.

U20A C99A: the self-cleavage amounted to 0.74.

Consider U15G U104C, for which the self-cleavage turned out to be 0.89.

As to C16G C71G, the self-cleavage came to 0.42.

For C18U U134G, the self-cleavage was 1.95.

As to C16U A136U, the self-cleavage was determined as 1.29.

With C19A C128U, the self-cleavage is 1.08.

With U20A U132A, the self-cleavage came out at 1.61.

As for C18U U100C, the self-cleavage was found to be 1.53.

As for C18U A129G, the self-cleavage worked out at 0.81.

C17G U102A: the self-cleavage was 1.38.

Consider U20A G137A, for which the self-cleavage amounted to 1.29.

In the case of C18A A24G, the self-cleavage turned out to be 1.11.

For U20A A136U, the self-cleavage is 1.38.

On to C19A G72A, for which the self-cleavage stood at 1.07.

As to C19A U62C, the self-cleavage turned out to be 0.28.

Take C19U A121U: the self-cleavage is 1.03.

As for C19U A121G, the self-cleavage was determined as 0.42.

As to U20A A67G, the self-cleavage stood at 0.45.

As for U20A A67U, the self-cleavage was 0.13.

Turning to C18A U81C, the self-cleavage is 1.31.

For the variant U20A A57G, the self-cleavage is 1.

For U20A A57U, the self-cleavage is 0.11.

As to U15G G126C, the self-cleavage stood at 1.19.

Take C19U G114A: the self-cleavage was 1.28.

For C19A, the self-cleavage was 0.97.

Turning to C19U, the self-cleavage was 1.21.

For C19G, the self-cleavage amounted to 0.35.

In the case of C17A U115C, the self-cleavage came out at 0.71.

Turning to C17U A138G, the self-cleavage was found to be 1.06.

In the case of C17U A138U, the self-cleavage came out at 1.29.

For U15C U104G, the self-cleavage came to 1.29.

Turning to U20A G72A, the self-cleavage was determined as 1.31.

In the case of U20A U130C, the self-cleavage is 1.45.

As to U20A U130A, the self-cleavage is 0.32.

On to C18U G60A, for which the self-cleavage turned out to be 0.01.

For C16A A138G, the self-cleavage came to 1.65.

Regarding C17U A67G, the self-cleavage came out at 0.34.

As for C18U A136G, the self-cleavage amounted to 1.33.

Consider C19A A42G, for which the self-cleavage came out at 0.33.

Take U20A G86A: the self-cleavage was 0.18.

Regarding C18A A22G, the self-cleavage is 0.7.

For U15G U47A, the self-cleavage amounted to 1.16.

As for C18G A124G, the self-cleavage is 1.02.

Consider U20A C37G, for which the self-cleavage was determined as 2.63.

Take C17U A65G: the self-cleavage was 0.18.

Take C17U A65U: the self-cleavage is 0.07.

As for U20C A77G, the self-cleavage amounted to 1.7.

As for U20C A77U, the self-cleavage amounted to 1.02.

For C19U A117U, the self-cleavage amounted to 1.28.

Consider U20C A64G, for which the self-cleavage is 0.41.

Turning to U20C A64U, the self-cleavage came out at 0.65.

Regarding C18U G126U, the self-cleavage worked out at 1.62.

C19U U104C: the self-cleavage was 0.65.

For the variant C19U U104A, the self-cleavage was 1.07.

Take C18A U96C: the self-cleavage came to 0.22.

For the variant C18A U45A, the self-cleavage is 1.06.

For U20C A79U, the self-cleavage worked out at 1.7.

Consider U20C A79G, for which the self-cleavage worked out at 1.5.

Take C18U A78G: the self-cleavage turned out to be 0.88.

On to C18U A78U, for which the self-cleavage came out at 0.9.

Turning to C19U U81A, the self-cleavage turned out to be 1.05.

In the case of C19U U85C, the self-cleavage was 0.21.

As to C16A A121G, the self-cleavage amounted to 0.53.

For C17U U39C, the self-cleavage is 0.92.

For the variant C19A U26A, the self-cleavage is 1.16.

On to C19A U108C, for which the self-cleavage came to 1.46.

Turning to C18A A138G, the self-cleavage is 2.26.

Take C18A A138U: the self-cleavage worked out at 1.66.

In the case of U20A A65G, the self-cleavage amounted to 0.11.

Consider C16U A140U, for which the self-cleavage turned out to be 1.78.

In the case of U20A C110A, the self-cleavage was 1.4.

In the case of U15G U108C, the self-cleavage stood at 1.06.

In the case of U20C A42U, the self-cleavage is 1.06.

Turning to C18U A42C, the self-cleavage was determined as 0.74.

C18A U104A: the self-cleavage was found to be 0.85.

For the variant U20A A69U, the self-cleavage was found to be 0.1.

Consider U20A A69C, for which the self-cleavage was 0.06.

On to U15C U85A, for which the self-cleavage came to 0.1.

On to C19U U62A, for which the self-cleavage was 0.07.

As for C19A U85G, the self-cleavage was 0.13.

U20A A22U: the self-cleavage stood at 1.56.
